Data from patent publication US20250179196A1 (Janssen / Centocor, published 2025).
Substitutions are numbered along the chain they refer to.

T1: Recombinant human IL-23 receptor (IL-23R) extracellular domain (ECD) protein (human, UniProt Q5VWK5 24-355)
T1 construct: also called human IL-23R ECD; hu IL-23R ECD
T1 sequence: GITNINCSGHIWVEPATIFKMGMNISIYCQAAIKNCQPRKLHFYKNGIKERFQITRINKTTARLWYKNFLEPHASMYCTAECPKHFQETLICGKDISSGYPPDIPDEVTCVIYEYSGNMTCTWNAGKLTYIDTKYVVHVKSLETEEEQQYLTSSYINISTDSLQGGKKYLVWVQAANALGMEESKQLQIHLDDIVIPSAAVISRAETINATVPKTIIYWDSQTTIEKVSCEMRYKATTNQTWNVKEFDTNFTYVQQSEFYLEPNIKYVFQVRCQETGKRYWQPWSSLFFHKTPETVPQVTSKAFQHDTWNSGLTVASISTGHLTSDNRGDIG

T2: rat IL-23R extracellular domain (ECD) protein (rat)
T2 construct: also called rat IL-23R ECD; F1LX96 amino acids 24-354
T2 chain: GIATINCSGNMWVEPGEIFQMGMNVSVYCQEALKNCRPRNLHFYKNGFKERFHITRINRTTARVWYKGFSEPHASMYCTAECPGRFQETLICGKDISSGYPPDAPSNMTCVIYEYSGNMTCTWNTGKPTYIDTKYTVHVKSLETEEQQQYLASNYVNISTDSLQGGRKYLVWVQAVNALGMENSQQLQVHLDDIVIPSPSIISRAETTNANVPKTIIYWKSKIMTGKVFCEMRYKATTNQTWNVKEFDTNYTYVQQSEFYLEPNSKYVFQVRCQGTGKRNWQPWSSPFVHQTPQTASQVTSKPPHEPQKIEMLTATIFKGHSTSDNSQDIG

B1: I23RB269 (antibody, mouse IgG2a, kappa, V domains shown)
VH: QVQLVQSGAEVKKPGSSVKVSCKASGGTFSDASISWVRQAPGQGLEWMGTIIPISGNANYAQKFQGRVTITADESTSTAYMELSSLRSEDTAVYYCARDRYVWYYWDGYFDYWGQGTLVTVSS
VL: not shown
notes: phage display; human V regions, mouse IgG2a/kappa constant regions
B2: I23RB93 (antibody, mouse IgG2a, kappa, V domains shown)
VH: QVQLKESGPGLVQPSQSLSITCTVSGFSLTSYGVHWVRQSPGKGLEWLGVIWSGVSTDYNAAFISRLSISKDNSKSQVFFKMNSLQADDTAIYYCARSRGSYYFDYWGQGTTLTVSS
VL: DIKMTQSPATLSVTPGDSVSLFCRASQSISNNLHWYQQKSHESPRLLIKYASQSISGIPSRFSGSGSGTDFTLSINSVETEDFGMYFCQQSNSWPLTFGGGTKLEIKR
notes: mouse immunization; mouse IgG2a/kappa
B3: I23RB318 (antibody, mouse IgG2a, kappa, V domains shown)
VH: QVQLVQSGAEVKKPGSSVKVSCKASGGTFSSYAISWVRQAPGQGLEWMGGIIPIFGTANYAQKFQGRVTITADESTSTAYMELSSLRSEDTAVYYCARVRARHRGSFDYWGQGTLVTVSS
VL: DIQMTQSPSSLSASVGDRVTITCRASQSIDRWLNWYQQKPGKAPKLLIYYASSLQSGVPSRFSGSGSGTDFTLTISSLQPEDFATYYCQQSYSTPLTFGQGTKVEIKR
notes: as for B1
B4: I23RB313 (antibody, mouse IgG2a, kappa, V domains shown)
VH: QVQLVQSGAEVKKPGSSVKVSCKASGGTFSSYGISWVRQAPGQGLEWMGWISAIFGTTNYAQKFQGRVTITADESTSTAYMELSSLRSEDTAVYYCARGTVPGFDYWGQGTLVTVSS
VL: B3 VL with D30G, R31E, W32D, Y50A
notes: as for B1
B5: I23RB86 (antibody, mouse IgG2a, kappa, V domains shown)
VH: EVQLQQSGAELVKPGASVKLSCKASGYTFTSYWLHWVKQRPGQGLEWIGEIDPSDSYTYYNQKFKGKATLTVDKSSSTAYMQLSSLTSEDSAVYYCARSPYDYDWGAYWGQGTSVTVSS
VL: DIVMTQSPSSMSVSLGDTVSITCHASQGISSNIGWLQQKPGKSFKGLIYHGTNLEDEVPSRFSGSGSGADYSLTIGSLESEDFADYYCVQYAQFPWTFGAGTKLEMKR
notes: as for B2
B6: I23RB83 (antibody, mouse IgG2a, kappa, V domains shown)
VH: DVQLQESGPGLVAPSQSLSITCTVSGFSLTNYDVHWVRQSPGKGLEWLGVIWSDGSTDYNAAFISRLSFSKDNSKRQVFFKMNSLQPDDTAIYYCARNNYYRYGRNPMDYWGQGTTVTVSS
VL: DIQMTQSPASQSASLGESVTITCLASQTIGSWLAWYQQKPGKSPQLLIYAATSLADGVPSRFSGSGSGTKFSFKISSLQAEDFVSYYCQQLYSSPLTFGGGTKLEIKR
notes: as for B2
B7: I23RB98 (antibody, mouse IgG2a, kappa, V domains shown)
VH: EFQLQQSGPELVKPGASVKMSCKASGYTFTNYYMHWVKQSHGKTIEWIGYIYPNSGDTSYNQKFKGKATLTVDKSSSTAYMELRSLTSEDSAVYTCARFGGFYDAMDYWGQGTTVTVSS
VL: DIVLTQSPAIMSASLGERVTMTCTASSSVSSSYLHWYQQKPGSSPKLWIYSTSNLASGVPARFSGSGSGTSYSLTISSMEAEDAATYYCHQYHRSPFTFGSGTKLEMKR
notes: as for B2
B8: I23RB57 (antibody, mouse IgG2a, kappa, V domains shown)
VH: B7 VH with T95N, T114S
VL: B7 VL with L4M, M107I
notes: as for B2
B9: I23RB54 (antibody, mouse IgG2a, kappa, V domains shown)
VH: EVQLQQSGGGLVKPGGSLKLSCAASGFTFSSYAMSWVRQTPEKRLEWVAGISSGGSYIYYPDNVKGRFTISRDNARNTLYLQMSSLRSEDTAMYYCARKKSDYGAMDYWGQGTTLTVSS
VL: DIQMTQSPKFLLVSAGDRVTITCKASQSVSNDVAWYQQKPGQSPRLLIYYASNRYTGVPDRFTGSGYGTDFTFTISTVQAEDLAVYFCQQDYSSLPTFGAGTKLEMKR
notes: as for B2
B10: I23RB270 (antibody, mouse IgG2a, kappa, V domains shown)
VH: QVQLVQSGAEVKKPGSSVKVSCKASGGTFDSYAISWVRQAPGQGLEWMGGIIPISGYANYAQKFQGRVTITADESTSTAYMELSSLRSEDTAVYYCARDLSGGYLGLRTLYYYYFDYWGQGTLVTVSS
VL: EIVLTQSPATLSLSPGERATLSCRASQSVSSYLAWYQQKPGQAPRLLIYDASNRATGIPARFSGSGSGTDFTLTISSLEPEDFAVYYCQQRSNWPLTFGQGTKVEIKR
notes: as for B1
B11: I23RB268 (antibody, mouse IgG2a, kappa, V domains shown)
VH: QVQLVQSGAEVKKPGSSVKVSCKASGGTFSSYYIHWVRQAPGQGLEWMGGIIPIFGYANYAQKFQGRVTITADESTSTAYMELSSLRSEDTAVYYCARDPGSYGSVYYRRSYYFDYWGQGTLVTVSS
VL: B10 VL
notes: as for B1
B12: I23RB267 (antibody, mouse IgG2a, kappa, V domains shown)
VH: EVQLVQSGAEVKKPGESLKISCKGSGYSFTSYWIGWVRQMPGKGLEWMGIIYPGDSDTRYSPSFQGQVTISADKSISTAYLQWSSLKASDTAMYYCARVWYSSWDLDYWGQGTLVTVSS
VL: not shown
notes: as for B1

What follows are binders tested against T1, Recombinant human IL-23 receptor … (assay: SPR Biacore 8K, supernatant, analysis 2).
How it was run: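 mAbs captured (~150 RU) on Biacore 8K; human or rat IL-23R ECD injected at 0.8–500 nM (5-fold series) at 25 °C in HBS-P+ with 100 μg/ml BSA. Association 3 min at 50 μL/min, dissociation 30 min. Ka, Kd and KD from Langmuir 1:1 fit.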

Compared with B1, B2 is 2.1-fold higher in Kd: 1.41 nM for the first, 2.9 nM for the second.

Compared with B3, B4 is 4.4-fold lower in Kd: 21.4 nM for the first, 4.85 nM for the second. The second binds more tightly here.

First: B5
Second: B6
The Kd of the first is 24-fold higher: 8.14 nM for the first, 0.345 nM for the second.

B7 and B8 are within 1.5-fold of each other in Kd: 25.8 nM for the first, 38.1 nM for the second.

Compared with B9, B10 is 74-fold lower in Kd: 183 nM for the first, 2.46 nM for the second. The second binds more tightly here.

Going from B11 to B12, the Kd falls from 18.9 nM to 7.56 nM (2.5-fold).

Compared with B1, B2 is 2.3-fold higher in koff: 0.000542 s⁻¹ for the first, 0.00123 s⁻¹ for the second.

Compared with B3, B4 is 14-fold lower in koff: 0.00156 s⁻¹ for the first, 0.000108 s⁻¹ for the second.

First: B5
Second: B6
The koff of the first is 9.7-fold higher: 0.000572 s⁻¹ for the first, 5.91e-05 s⁻¹ for the second.

B7 and B8 are within 1.5-fold of each other in koff: 0.0035 s⁻¹ for the first, 0.00307 s⁻¹ for the second.

Going from B9 to B10, the koff falls from 0.0979 s⁻¹ to 0.00101 s⁻¹ (97-fold).

Going from B11 to B12, the koff falls from 0.000308 s⁻¹ to 0.000178 s⁻¹ (1.7-fold).

B1 and B2 are within 1.5-fold of each other in kon: 385000 M⁻¹ s⁻¹ for the first, 423000 M⁻¹ s⁻¹ for the second.

Going from B3 to B4, the kon falls from 72900 M⁻¹ s⁻¹ to 22300 M⁻¹ s⁻¹ (3.3-fold).

First: B5
Second: B6
The kon of the first is 2.4-fold lower: 70300 M⁻¹ s⁻¹ for the first, 172000 M⁻¹ s⁻¹ for the second.

Going from B7 to B8, the kon falls from 136000 M⁻¹ s⁻¹ to 80700 M⁻¹ s⁻¹ (1.7-fold).

B9 and B10 are within 1.5-fold of each other in kon: 534000 M⁻¹ s⁻¹ for the first, 409000 M⁻¹ s⁻¹ for the second.

B11 and B12 are within 1.5-fold of each other in kon: 16300 M⁻¹ s⁻¹ for the first, 23500 M⁻¹ s⁻¹ for the second.

Target: T2, rat IL-23R extracellular domain (ECD) …
Assay: SPR Biacore 8K, supernatant
Description: (§1) Affinity by SPR using Biacore 8K. Affinity measurements using Surface Plasmon Resonance (SPR) were performed using a Biacore 8K system (Cytiva). […] Approximately 9000-10000 RU (response units) of mAbs were immobilized. The kinetic experiments were performed at 25° C. in running buffer 1× of (HBS-P+ Buffer 10× (Cytiva #BR100671)+100 μg/ml BSA). To perform kinetic experiments, approximately 150 RU of mAbs were captured followed by injections of human IL-23R or rat IL-23R at concentrations ranging from 0.8 nM to 500 nM (in a 5-fold serial dilution). The association phase was monitored for 3 minutes at 50 μL/min, then followed by 30 minutes of buffer flow (dissociation phase). […] The collected data were processed using Biacore insight Evaluation software (Version 3.0.12.15655). The kinetic analysis of the data was performed using a Langmuir 1:1 binding model. The result for each mAb was reported in the format of Ka (On-rate), Kd (Off-rate) and KD (equilibrium dissociation constant).

B1: no binding (tested: 500 nM).
B2: no binding (tested: 500 nM).
B3: no binding (tested: 500 nM).
B4: no binding (tested: 500 nM).
B5: no binding (tested: 500 nM).
B6: no binding (tested: 500 nM).
B7: no binding (tested: 500 nM).
B8: no binding (tested: 500 nM).
B9: no binding (tested: 500 nM).
B10: no binding (tested: 500 nM).
B11: no binding (tested: 500 nM).
B12: no binding (tested: 500 nM).

The binders below were run against T1, Recombinant human IL-23 receptor … (assay: SPR Biacore 8K, supernatant, analysis 1).
Description: as §1

First: B1
Second: B2
The Kd of the first is 2.6-fold lower: 1.09 nM for the first, 2.88 nM for the second.

Going from B3 to B4, the Kd falls from 21.3 nM to under 4.98 nM. The second binds more tightly here.

Going from B5 to B6, the Kd falls from 8.06 nM to 0.366 nM (22-fold).

B7 and B8 are within 1.5-fold of each other in Kd: 39.1 nM for the first, 29.2 nM for the second.

Compared with B10, B11 is 6.3-fold higher in Kd: 1.91 nM for the first, 12 nM for the second.

B12 was tested, and the Kd was 18.1 nM.

First: B1
Second: B2
The koff of the first is 2.7-fold lower: 0.000514 s⁻¹ for the first, 0.00138 s⁻¹ for the second.

Compared with B3, B4 is lower in koff: 0.00167 s⁻¹ for the first, under 2.89e-05 s⁻¹ for the second.

Going from B5 to B6, the koff falls from 0.000587 s⁻¹ to 0.000119 s⁻¹ (4.9-fold).

B7 and B8 are within 1.5-fold of each other in koff: 0.00294 s⁻¹ for the first, 0.00299 s⁻¹ for the second.

Compared with B10, B11 is 3.7-fold lower in koff: 0.00102 s⁻¹ for the first, 0.000273 s⁻¹ for the second.

B12 was tested, and the koff was 0.000196 s⁻¹.

B1 and B2 are within 1.5-fold of each other in kon: 473000 M⁻¹ s⁻¹ for the first, 480000 M⁻¹ s⁻¹ for the second.

Going from B3 to B4, the kon falls from 78400 M⁻¹ s⁻¹ to 5800 M⁻¹ s⁻¹ (14-fold).

First: B5
Second: B6
The kon of the first is 4.5-fold lower: 72800 M⁻¹ s⁻¹ for the first, 325000 M⁻¹ s⁻¹ for the second.

B7 and B8 are within 1.5-fold of each other in kon: 75100 M⁻¹ s⁻¹ for the first, 102000 M⁻¹ s⁻¹ for the second.

First: B10
Second: B11
The kon of the first is 23-fold higher: 535000 M⁻¹ s⁻¹ for the first, 22800 M⁻¹ s⁻¹ for the second.

B12 gave a kon of 10800 M⁻¹ s⁻¹.
